Source: article PMC4718629, “Molecular Determinants of GS-9620-Dependent TLR7 Activation” (PLoS ONE, 2016)

Target: the molecule itself
Assay: SEC; purified recombinant full-length TLR7 run against calibration standards (670, 158, 44, 17 and 1.35 kDa); solubilized with Fos-Choline 14

B1: full-length recombinant human TLR7 (residues 27-1049) with N-terminal 6HIS tag (receptor, UniProt Q9NYK1 27-1049, looked up)
chain: ARWFPKTLPCDVTLDVPKNHVIVDCTDKHLTEIPGGIPTNTTNLTLTINHIPDISPASFHRLDHLVEIDFRCNCVPIPLGSKNNMCIKRLQIKPRSFSGLTYLKSLYLDGNQLLEIPQGLPPSLQLLSLEANNIFSIRKENLTELANIEILYLGQNCYYRNPCYVSYSIEKDAFLNLTKLKVLSLKDNNVTAVPTVLPSTLTELYLYNNMIAKIQEDDFNNLNQLQILDLSGNCPRCYNAPFPCAPCKNNSPLQIPVNAFDALTELKVLRLHSNSLQHVPPRWFKNINKLQELDLSQNFLAKEIGDAKFLHFLPSLIQLDLSFNFELQVYRASMNLSQAFSSLKSLKILRIRGYVFKELKSFNLSPLHNLQNLEVLDLGTNFIKIANLSMFKQFKRLKVIDLSVNKISPSGDSSEVGFCSNARTSVESYEPQVLEQLHYFRYDKYARSCRFKNKEASFMSVNESCYKYGQTLDLSKNSIFFVKSSDFQHLSFLKCLNLSGNLISQTLNGSEFQPLAELRYLDFSNNRLDLLHSTAFEELHKLEVLDISSNSHYFQSEGITHMLNFTKNLKVLQKLMMNDNDISSSTSRTMESESLRTLEFRGNHLDVLWREGDNRYLQLFKNLLKLEELDISKNSLSFLPSGVFDGMPPNLKNLSLAKNGLKSFSWKKLQCLKNLETLDLSHNQLTTVPERLSNCSRSLKNLILKNNQIRSLTKYFLQDAFQLRYLDLSSNKIQMIQKTSFPENVLNNLKMLLLHHNRFLCTCDAVWFVWWVNHTEVTIPYLATDVTCVGPGAHKGQSVISLDLYTCELDLTNLILFSLSISVSLFLMVMMTASHLYFWDVWYIYHFCKAKIKGYQRLISPDCCYDAFIVYDTKDPAVTEWVLAELVAKLEDPREKHFNLCLEERDWLPGQPVLENLSQSIQLSKKTVFVMTDKYAKTENFKIAFYLSHQRLMDEKVDVIILIFLEKPFQKSKFLQLRKRLCGSSVLEWPTNPQAHPYFWQCLKNALATDNHVAYSQVFKETV
notes: human Toll-like receptor 7 (TLR7), residues 27-1049; also called recTLR7; recombinant TLR7
In the case of B1, the “stoichiometry N” value is reported as 2.
